This is an account of results in the Immune Epitope Database (IEDB).

Assay in all cases: IEDB peptide-MHC binding, cellular MHC/competitive/fluorescence; ≥ and ≤ were set here for values at or beyond the usual limits of such assays
For one test, the target named is HLA-A*02:04.
The next test has as its target HLA-A*02:05. The following applies: source organism: Human papillomavirus 16.
A further test addresses HLA-A*02:06. The following applies: source organism: Human papillomavirus 16.
Another test concerns the target HLA-A*02:03. To be noted: source organism: Human papillomavirus 16.
A further test addresses HLA-A*02:02. To be noted: source organism: Human papillomavirus 16.
The mark [1] stands for this setting: source organism: Human papillomavirus 16.

Turning to FLPSDFFPSV, the half-maximal inhibitory concentration (IC50) (in general, the midpoint of a concentration-inhibition curve) with HLA-A*02:04 (source organism: Hepatitis B virus) stood at 1 µM. This lies in the single-digit micromolar range.

Regarding TLGIVCPI, the IC50 in the test with HLA-A*02:04 (setting [1]) is 4 µM; with HLA-A*02:05, at least 20 µM; with HLA-A*02:06, 28 µM; with HLA-A*02:03, 2 µM; in the test with HLA-A*02:02, 4 µM.

Regarding YMLDLQPETT, the IC50 in the test with HLA-A*02:04 (setting [1]) is 11 µM; with HLA-A*02:05, at least 100 µM; with HLA-A*02:06, at least 70 µM; with HLA-A*02:03, 5 µM; with HLA-A*02:02, 6 µM.
